Each block holds one substance with its values, some of them ahead of it.
Experiments:
[1] = biological target: BcLmuA K59A, nuclease-dead BcLmuA of the BcLmuA(K59A)B complex (Bacillus cellulasensis NIO-1130); test: cryo-EM structure
[2] = biological target: VcLmuA, LmuA of the type II Lamassu system from Vibrio cholerae O1 El (Vibrio cholerae O1 El); test: cryo-EM structure
[3] = biological target: VcLmuA, LmuA of the type II Lamassu system from Vibrio cholerae O1 El (Vibrio cholerae O1 El); test: SEC-MALS

stoichiometry N [1]: 4
Substance: BcLmuA K59A, nuclease-dead BcLmuA of the BcLmuA(K59A)B complex (natural protein)

Substance: VcLmuA, LmuA of the type II Lamassu system from Vibrio cholerae O1 El (natural protein)
stoichiometry N [2]: 4

Substance: VcLmuC, LmuC of the type II Lamassu system from Vibrio cholerae O1 El (natural protein)
stoichiometry N (LmuC per LmuA) [3]: 1
stoichiometry N (VcLmuC per VcLmuA) [2]: 1
